Source: US20250320281A1

Assays:
Assay in all cases: cell-based or functional assay
[1] = target: HIV-1 92UG005 envelope glycoprotein (Env) on pseudovirus (HIV-1)
[2] = target: HIV-1 94UG103 envelope glycoprotein (Env) on pseudovirus (HIV-1)
[3] = target: HIV-1 Env of isolate 92BR020, clade B, on pseudovirus (HIV-1)
[4] = target: HIV-1 Env of isolate 98CN006 (CRF08 BC) (HIV-1 isolate 98CN006)
[5] = target: HIV-1 Env of isolate APV_17, clade B, on pseudovirus (HIV-1)
[6] = target: HIV-1 Env of isolate MGRM-D-003 (clade D pseudovirus) (HIV-1)
[7] = target: HIV-1 Env of isolate MGRM-D-004 (clade D pseudovirus) (HIV-1)
[8] = target: HIV-1 Env of isolate MGRM-D-008 (clade D pseudovirus) (HIV-1)
[9] = target: HIV-1 Env of isolate MGRM-D-016 (clade D pseudovirus) (HIV-1)
[10] = target: HIV-1 Env of isolate MGRM-D-018 (clade D pseudovirus) (HIV-1)
[11] = target: HIV-1 Env of isolate MGRM-D-021 (clade D pseudovirus) (HIV-1)
[12] = target: HIV-1 Env of isolate MGRM-D-026 (clade D pseudovirus) (HIV-1)
[13] = target: HIV-1 Env of isolate SC422661.8 (Acute), clade B, on pseudovirus (HIV-1)
[14] = target: HIV-1 Env of pseudovirus MGRM-F1-012 (HIV-1)
[15] = target: HIV-1 Env of pseudovirus MGRM-G-013 (HIV-1, clade G isolate MGRM-G-013)
[16] = target: HIV-1 Env of pseudovirus MGRM-G-017 (HIV-1, clade G isolate MGRM-G-017)
[17] = target: HIV-1 Env of pseudovirus MGRM-G-024 (HIV-1, clade G isolate MGRM-G-024)
[18] = target: HIV-1 Env of pseudovirus MGRM-G-027 (HIV-1, clade G isolate MGRM-G-027)
[19] = target: HIV-1 envelope glycoprotein (Env) of isolate 94KE105, listed under clade A (HIV-1)
[20] = target: HIV-1 envelope glycoprotein (Env) of isolate MGRM-A-007, clade A (HIV-1)
[21] = target: HIV-1 92BR020 Env (pseudovirus, clade B) (HIV-1)
[22] = target: HIV-1 92RW020 Env (pseudovirus, clade A) (HIV-1)
[23] = target: HIV-1 APV6 Env (pseudovirus, clade B) (HIV-1)
[24] = target: HIV-1 Env of isolate 92UG001 (HIV-1)
[25] = target: HIV-1 Env of isolate 92UG037 (HIV-1)
[26] = target: HIV-1 Env of isolate 93IN905 (subtype C) (HIV-1)
[27] = target: HIV-1 Env of isolate 93MW959 (subtype C) (HIV-1)
[28] = target: HIV-1 Env of isolate MG RM-D-005 (HIV-1)
[29] = target: HIV-1 Env of isolate MGRM-AG-011 (subtype AG) (HIV-1)
[30] = target: HIV-1 Env of isolate MGRM-Chronic-B-002 (subtype B) (HIV-1)
[31] = target: HIV-1 JRFL Env (pseudovirus, clade B) (HIV-1)
[32] = target: HIV-1 MGRM-C-026 Env (pseudovirus, clade C) (HIV-1)
[33] = target: HIV-1 envelope glycoprotein (Env) of isolate MGRM-C-022 (HIV-1)

Chain of 1443_C16 (PG16) (TCN-116) (antibody) (VH): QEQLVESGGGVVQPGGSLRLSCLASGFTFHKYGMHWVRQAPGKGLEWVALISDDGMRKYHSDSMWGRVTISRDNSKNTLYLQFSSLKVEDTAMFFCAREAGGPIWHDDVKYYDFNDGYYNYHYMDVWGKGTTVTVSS
Chain of 1443_C16 (PG16) (TCN-116) (antibody) (VL): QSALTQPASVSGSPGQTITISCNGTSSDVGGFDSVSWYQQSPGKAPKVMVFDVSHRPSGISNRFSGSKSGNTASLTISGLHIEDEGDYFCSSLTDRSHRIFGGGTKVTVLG
Chain of 5329_C19 (PGT-136) (antibody) (VH): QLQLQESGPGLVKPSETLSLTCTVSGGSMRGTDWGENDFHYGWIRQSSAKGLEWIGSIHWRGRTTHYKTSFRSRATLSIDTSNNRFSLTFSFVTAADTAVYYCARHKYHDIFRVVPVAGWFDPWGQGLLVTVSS
Chain of 5329_C19 (PGT-136) (antibody) (VL): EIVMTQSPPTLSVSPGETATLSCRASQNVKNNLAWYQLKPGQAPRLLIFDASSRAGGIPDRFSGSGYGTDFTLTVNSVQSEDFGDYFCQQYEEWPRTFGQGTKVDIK

| Substance | IC50, pseudovirus neutralization [1] | IC50, pseudovirus neutralization [2] | IC50 (µg/ml), pseudovirus neutralization [3] | IC50 (µg/ml), pseudovirus neutralization [4] | IC50 (µg/ml), pseudovirus neutralization [5] | IC50 (µg/ml), pseudovirus neutralization [6] | IC50 (µg/ml), pseudovirus neutralization [7] | IC50 (µg/ml), pseudovirus neutralization [8] | IC50 (µg/ml), pseudovirus neutralization [9] | IC50 (µg/ml), pseudovirus neutralization [10] | IC50 (µg/ml), pseudovirus neutralization [11] | IC50 (µg/ml), pseudovirus neutralization [12] | IC50 (µg/ml), pseudovirus neutralization [13] | IC50 (µg/ml), pseudovirus neutralization [14] | IC50 (µg/ml), pseudovirus neutralization [15] | IC50 (µg/ml), pseudovirus neutralization [16] | IC50 (µg/ml), pseudovirus neutralization [17] | IC50 (µg/ml), pseudovirus neutralization [18] | IC50 (µg/ml), pseudovirus neutralization [19] | IC50 (µg/ml), pseudovirus neutralization [20] | further results |
| --- | --- | --- | --- | --- | --- | --- | --- | --- | --- | --- | --- | --- | --- | --- | --- | --- | --- | --- | --- | --- | --- |
| 2G12 (antibody) | > 50 µg/mL | > 50 µg/mL | 4.84 µg/mL | > 50 µg/mL | > 50 µg/mL | > 50 µg/mL | > 50 µg/mL | > 50 µg/mL | > 50 µg/mL | 0.12 µg/mL | 23 µg/mL | > 50 µg/mL | 0.84 µg/mL | 1.81 µg/mL | > 50 µg/mL | > 50 µg/mL | > 50 µg/mL | > 50 µg/mL | 7.22 µg/mL | > 50 µg/mL | – |
| 1443_C16 (PG16) (TCN-116) (antibody) | > 50 µg/mL | 0.008 µg/mL | > 50 µg/mL | > 50 µg/mL | 24.8 µg/mL | 0.01 µg/mL | 0.01 µg/mL | > 50 µg/mL | 0.02 µg/mL | 0.004 µg/mL | > 50 µg/mL | > 50 µg/mL | 1.13 µg/mL | 0.003 µg/mL | > 50 µg/mL | 0.02 µg/mL | 0.01 µg/mL | 0.01 µg/mL | 6.13 µg/mL | 5.91 µg/mL | – |
| 2F5 (antibody) | 11.8 µg/mL | 3.79 µg/mL | > 50 µg/mL | > 50 µg/mL | 4.61 µg/mL | > 50 µg/mL | 2.3 µg/mL | > 50 µg/mL | 9.85 µg/mL | 4.05 µg/mL | > 50 µg/mL | 4.37 µg/mL | > 50 µg/mL | > 50 µg/mL | 0.59 µg/mL | 0.6 µg/mL | 1.07 µg/mL | 0.28 µg/mL | > 50 µg/mL | 16.3 µg/mL | – |
| 4E10 (antibody) | 8.86 µg/mL | 9.7 µg/mL | > 50 µg/mL | 1.91 µg/mL | 10.5 µg/mL | 2.49 µg/mL | 1.58 µg/mL | 42.9 µg/mL | 15.4 µg/mL | 3.9 µg/mL | 13.3 µg/mL | 2.95 µg/mL | 6.35 µg/mL | 0.37 µg/mL | 1.15 µg/mL | 1.14 µg/mL | 1.57 µg/mL | 1.19 µg/mL | 7.63 µg/mL | 1.82 µg/mL | – |
| b12 (antibody) | > 50 µg/mL | 3.54 µg/mL | > 50 µg/mL | > 50 µg/mL | > 50 µg/mL | > 50 µg/mL | > 50 µg/mL | > 50 µg/mL | 1.12 µg/mL | 1.39 µg/mL | 5.23 µg/mL | 1.55 µg/mL | 6.11 µg/mL | > 50 µg/mL | > 50 µg/mL | > 50 µg/mL | 2.38 µg/mL | > 50 µg/mL | > 50 µg/mL | > 50 µg/mL | – |
| 1495_C14 (PGC14) (antibody) | > 50 µg/mL | > 50 µg/mL | 4 µg/mL | > 50 µg/mL | > 50 µg/mL | > 50 µg/mL | > 50 µg/mL | > 50 µg/mL | > 50 µg/mL | > 50 µg/mL | > 50 µg/mL | > 50 µg/mL | > 50 µg/mL | > 50 µg/mL | > 50 µg/mL | > 50 µg/mL | > 50 µg/mL | > 50 µg/mL | > 50 µg/mL | > 50 µg/mL | – |
| 5329_C19 (PGT-136) (antibody) | – | – | – | – | – | – | – | – | – | – | – | – | – | – | – | – | – | – | – | – | IC50 neutralization [21]: > 10 µg/mL; IC50 neutralization [22]: 0.738 µg/mL; IC50 neutralization [23]: > 10 µg/mL; IC50 (µg/mL), pseudovirus neutralization [24]: > 50 µg/mL; IC50 [25]: > 50 µg/mL; IC50 neutralization [26]: 0.011 µg/mL; IC50 neutralization [27]: > 50 µg/mL; IC50 (µg/mL), pseudovirus neutralization [28]: > 50 µg/mL; IC50 (µg/mL), pseudovirus neutralization [29]: > 50 µg/mL; IC50 neutralization [30]: > 50 µg/mL; IC50 neutralization [31]: > 10 µg/mL; IC50 neutralization [32]: 0.0065 µg/mL; IC50 (µg/mL), pseudovirus neutralization [33]: > 50 µg/mL |
